{"source": "paper PMC3046868", "about": "(Nature, 2010)", "proteins": {"B1": {"name": "HA-tagged wild-type APCDD1 (natural protein)", "chain": "not shown", "modifications": "glycosylated"}}, "molecular_target": "the molecule itself", "assay": "western blot"}
{"protein": "B1", "values": [{"measurement": "stoichiometry N", "result": 2}]}
